Key:
[1] = molecular target: T1, FcγRIIIa extracellular domain with C-terminal His tag (human, UniProt P08637 17-208); test: SPR (Biacore); He/Con_3a divided by He/Con_2b (FcγRIIb)
T1 construct: extracellular domain; also called FcgRIIIa; 3a; not shown: His tag at the C terminus

[2] = molecular target: T2, FcγRIIb extracellular domain with C-terminal His tag (human, UniProt P31994 43-217); test: SPR (Biacore), FcγR as analyte over captured antibody; GpH7-A5/GpH7-B3/GpL16-k0 = 100
T2 construct: extracellular domain; also called FcgRIIb; 2b; not shown: His tag at the C terminus
T2 sequence (looked up): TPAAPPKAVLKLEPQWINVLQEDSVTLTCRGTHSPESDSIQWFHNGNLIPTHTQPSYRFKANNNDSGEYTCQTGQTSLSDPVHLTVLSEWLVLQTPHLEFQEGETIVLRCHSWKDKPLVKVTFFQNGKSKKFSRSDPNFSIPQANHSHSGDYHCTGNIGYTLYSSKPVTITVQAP

[3] = molecular target: T1, FcγRIIIa extracellular domain with …; test: as above

T1 sequence (P08637 17-208): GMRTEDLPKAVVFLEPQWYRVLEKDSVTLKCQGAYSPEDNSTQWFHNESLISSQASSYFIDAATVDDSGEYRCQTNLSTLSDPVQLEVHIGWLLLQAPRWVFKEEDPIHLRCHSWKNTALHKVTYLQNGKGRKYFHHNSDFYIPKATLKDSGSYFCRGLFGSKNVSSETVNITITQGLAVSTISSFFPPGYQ

B1: GpH7-A5/GpH7-B3 variant K326_08L/GpL16-k0 (antibody, human IgG1, kappa)
heavy 1: not shown
heavy 2: not shown
light: DIVMTQSPLSLPVTPGEPASISCQASESLVHSNRNTYLHWYLQKPGQSPQLLIYKVSNRFSGVPDRFSGSGSGTDFTLKISRVEAEDVGVYYCSQNTHVPPTFGQGTKVEIERTVAAPSVFIFPPSDEQLKSGTASVVCLLNNFYPREAKVQWKVDNALQSGNSQESVTEQDSKDSTYSLSSTLTLSKADYEKHKVYACEVTHQGLSSPVTKSFNRGEC
notes: Heterodimerized IgG1 antibody; alteration in the GpH7-B3 chain only; also called He Ab
[1]
  He_3a/2b (IIIa/IIb): 0.65 ratio
[2]
  He/Con_2b: 177 % of control
[3]
  He/Con_3a: 114 % of control

B2: GpH7-A5/GpH7-B3 variant K326_19Q/GpL16-k0 (antibody, human IgG1, kappa)
heavy 1: not shown
heavy 2: not shown
light: DIVMTQSPLSLPVTPGEPASISCQASESLVHSNRNTYLHWYLQKPGQSPQLLIYKVSNRFSGVPDRFSGSGSGTDFTLKISRVEAEDVGVYYCSQNTHVPPTFGQGTKVEIERTVAAPSVFIFPPSDEQLKSGTASVVCLLNNFYPREAKVQWKVDNALQSGNSQESVTEQDSKDSTYSLSSTLTLSKADYEKHKVYACEVTHQGLSSPVTKSFNRGEC
notes: as for B1
[1]
  He_3a/2b (IIIa/IIb): 0.76 ratio
[2]
  He/Con_2b: 139 % of control
[3]
  He/Con_3a: 106 % of control

B3: GpH7-A5/GpH7-B3 variant N325_05P/GpL16-k0 (antibody, human IgG1, kappa)
heavy 1: not shown
heavy 2: not shown
light: DIVMTQSPLSLPVTPGEPASISCQASESLVHSNRNTYLHWYLQKPGQSPQLLIYKVSNRFSGVPDRFSGSGSGTDFTLKISRVEAEDVGVYYCSQNTHVPPTFGQGTKVEIERTVAAPSVFIFPPSDEQLKSGTASVVCLLNNFYPREAKVQWKVDNALQSGNSQESVTEQDSKDSTYSLSSTLTLSKADYEKHKVYACEVTHQGLSSPVTKSFNRGEC
notes: as for B1
[1]
  He_3a/2b (IIIa/IIb): 0.39 ratio
[2]
  He/Con_2b: 26 % of control
[3]
  He/Con_3a: 10.2 % of control

B4: GpH7-A5/GpH7-B3 variant N325_04F/GpL16-k0 (antibody, human IgG1, kappa)
heavy 1: not shown
heavy 2: not shown
light: DIVMTQSPLSLPVTPGEPASISCQASESLVHSNRNTYLHWYLQKPGQSPQLLIYKVSNRFSGVPDRFSGSGSGTDFTLKISRVEAEDVGVYYCSQNTHVPPTFGQGTKVEIERTVAAPSVFIFPPSDEQLKSGTASVVCLLNNFYPREAKVQWKVDNALQSGNSQESVTEQDSKDSTYSLSSTLTLSKADYEKHKVYACEVTHQGLSSPVTKSFNRGEC
notes: as for B1
[1]
  He_3a/2b (IIIa/IIb): 0.14 ratio
[2]
  He/Con_2b: 143 % of control
[3]
  He/Con_3a: 20.7 % of control

B5: GpH7-A5/GpH7-B3 variant N325_06M/GpL16-k0 (antibody, human IgG1, kappa)
heavy 1: not shown
heavy 2: not shown
light: DIVMTQSPLSLPVTPGEPASISCQASESLVHSNRNTYLHWYLQKPGQSPQLLIYKVSNRFSGVPDRFSGSGSGTDFTLKISRVEAEDVGVYYCSQNTHVPPTFGQGTKVEIERTVAAPSVFIFPPSDEQLKSGTASVVCLLNNFYPREAKVQWKVDNALQSGNSQESVTEQDSKDSTYSLSSTLTLSKADYEKHKVYACEVTHQGLSSPVTKSFNRGEC
notes: as for B1
[1]
  He_3a/2b (IIIa/IIb): 0.14 ratio
[2]
  He/Con_2b: 217 % of control
[3]
  He/Con_3a: 31.4 % of control

B6: GpH7-A5/GpH7-B3 variant L328_05P/GpL16-k0 (antibody, human IgG1, kappa)
heavy 1: not shown
heavy 2: not shown
light: DIVMTQSPLSLPVTPGEPASISCQASESLVHSNRNTYLHWYLQKPGQSPQLLIYKVSNRFSGVPDRFSGSGSGTDFTLKISRVEAEDVGVYYCSQNTHVPPTFGQGTKVEIERTVAAPSVFIFPPSDEQLKSGTASVVCLLNNFYPREAKVQWKVDNALQSGNSQESVTEQDSKDSTYSLSSTLTLSKADYEKHKVYACEVTHQGLSSPVTKSFNRGEC
notes: as for B1
[1]
  He_3a/2b (IIIa/IIb): 0.62 ratio
[2]
  He/Con_2b: 65.1 % of control
[3]
  He/Con_3a: 40.5 % of control

B7: GpH7-A5/GpH7-B3 variant K326_09D/GpL16-k0 (antibody, human IgG1, kappa)
heavy 1: not shown
heavy 2: not shown
light: DIVMTQSPLSLPVTPGEPASISCQASESLVHSNRNTYLHWYLQKPGQSPQLLIYKVSNRFSGVPDRFSGSGSGTDFTLKISRVEAEDVGVYYCSQNTHVPPTFGQGTKVEIERTVAAPSVFIFPPSDEQLKSGTASVVCLLNNFYPREAKVQWKVDNALQSGNSQESVTEQDSKDSTYSLSSTLTLSKADYEKHKVYACEVTHQGLSSPVTKSFNRGEC
notes: as for B1
[1]
  He_3a/2b (IIIa/IIb): 0.69 ratio
[2]
  He/Con_2b: 193 % of control
[3]
  He/Con_3a: 134 % of control

B8: GpH7-A5/GpH7-B3 variant L328_01G/GpL16-k0 (antibody, human IgG1, kappa)
heavy 1: not shown
heavy 2: not shown
light: DIVMTQSPLSLPVTPGEPASISCQASESLVHSNRNTYLHWYLQKPGQSPQLLIYKVSNRFSGVPDRFSGSGSGTDFTLKISRVEAEDVGVYYCSQNTHVPPTFGQGTKVEIERTVAAPSVFIFPPSDEQLKSGTASVVCLLNNFYPREAKVQWKVDNALQSGNSQESVTEQDSKDSTYSLSSTLTLSKADYEKHKVYACEVTHQGLSSPVTKSFNRGEC
notes: as for B1
[1]
  He_3a/2b (IIIa/IIb): 0.56 ratio
[2]
  He/Con_2b: 80.2 % of control
[3]
  He/Con_3a: 44.9 % of control

B9: GpH7-A5/GpH7-B3 variant K326_20W/GpL16-k0 (antibody, human IgG1, kappa)
heavy 1: not shown
heavy 2: not shown
light: DIVMTQSPLSLPVTPGEPASISCQASESLVHSNRNTYLHWYLQKPGQSPQLLIYKVSNRFSGVPDRFSGSGSGTDFTLKISRVEAEDVGVYYCSQNTHVPPTFGQGTKVEIERTVAAPSVFIFPPSDEQLKSGTASVVCLLNNFYPREAKVQWKVDNALQSGNSQESVTEQDSKDSTYSLSSTLTLSKADYEKHKVYACEVTHQGLSSPVTKSFNRGEC
notes: as for B1
[1]
  He_3a/2b (IIIa/IIb): 0.57 ratio
[2]
  He/Con_2b: 148 % of control
[3]
  He/Con_3a: 84.8 % of control

B10: GpH7-A5/GpH7-B3 variant N325_03V/GpL16-k0 (antibody, human IgG1, kappa)
heavy 1: not shown
heavy 2: not shown
light: DIVMTQSPLSLPVTPGEPASISCQASESLVHSNRNTYLHWYLQKPGQSPQLLIYKVSNRFSGVPDRFSGSGSGTDFTLKISRVEAEDVGVYYCSQNTHVPPTFGQGTKVEIERTVAAPSVFIFPPSDEQLKSGTASVVCLLNNFYPREAKVQWKVDNALQSGNSQESVTEQDSKDSTYSLSSTLTLSKADYEKHKVYACEVTHQGLSSPVTKSFNRGEC
notes: as for B1
[1]
  He_3a/2b (IIIa/IIb): 0.27 ratio
[2]
  He/Con_2b: 111 % of control
[3]
  He/Con_3a: 30.3 % of control

B11: GpH7-A5/GpH7-B3 variant L328_02A/GpL16-k0 (antibody, human IgG1, kappa)
heavy 1: not shown
heavy 2: not shown
light: DIVMTQSPLSLPVTPGEPASISCQASESLVHSNRNTYLHWYLQKPGQSPQLLIYKVSNRFSGVPDRFSGSGSGTDFTLKISRVEAEDVGVYYCSQNTHVPPTFGQGTKVEIERTVAAPSVFIFPPSDEQLKSGTASVVCLLNNFYPREAKVQWKVDNALQSGNSQESVTEQDSKDSTYSLSSTLTLSKADYEKHKVYACEVTHQGLSSPVTKSFNRGEC
notes: as for B1
[1]
  He_3a/2b (IIIa/IIb): 0.55 ratio
[2]
  He/Con_2b: 144 % of control
[3]
  He/Con_3a: 79.1 % of control

B12: GpH7-A5/GpH7-B3 variant K326_15Y/GpL16-k0 (antibody, human IgG1, kappa)
heavy 1: not shown
heavy 2: not shown
light: DIVMTQSPLSLPVTPGEPASISCQASESLVHSNRNTYLHWYLQKPGQSPQLLIYKVSNRFSGVPDRFSGSGSGTDFTLKISRVEAEDVGVYYCSQNTHVPPTFGQGTKVEIERTVAAPSVFIFPPSDEQLKSGTASVVCLLNNFYPREAKVQWKVDNALQSGNSQESVTEQDSKDSTYSLSSTLTLSKADYEKHKVYACEVTHQGLSSPVTKSFNRGEC
notes: as for B1
[1]
  He_3a/2b (IIIa/IIb): 0.7 ratio
[2]
  He/Con_2b: 159 % of control
[3]
  He/Con_3a: 112 % of control

B13: GpH7-A5/GpH7-B3 variant K326_10E/GpL16-k0 (antibody, human IgG1, kappa)
heavy 1: not shown
heavy 2: not shown
light: DIVMTQSPLSLPVTPGEPASISCQASESLVHSNRNTYLHWYLQKPGQSPQLLIYKVSNRFSGVPDRFSGSGSGTDFTLKISRVEAEDVGVYYCSQNTHVPPTFGQGTKVEIERTVAAPSVFIFPPSDEQLKSGTASVVCLLNNFYPREAKVQWKVDNALQSGNSQESVTEQDSKDSTYSLSSTLTLSKADYEKHKVYACEVTHQGLSSPVTKSFNRGEC
notes: as for B1
[1]
  He_3a/2b (IIIa/IIb): 0.62 ratio
[2]
  He/Con_2b: 200 % of control
[3]
  He/Con_3a: 124 % of control

B14: GpH7-A5/GpH7-B3 variant N325_02A/GpL16-k0 (antibody, human IgG1, kappa)
heavy 1: not shown
heavy 2: not shown
light: DIVMTQSPLSLPVTPGEPASISCQASESLVHSNRNTYLHWYLQKPGQSPQLLIYKVSNRFSGVPDRFSGSGSGTDFTLKISRVEAEDVGVYYCSQNTHVPPTFGQGTKVEIERTVAAPSVFIFPPSDEQLKSGTASVVCLLNNFYPREAKVQWKVDNALQSGNSQESVTEQDSKDSTYSLSSTLTLSKADYEKHKVYACEVTHQGLSSPVTKSFNRGEC
notes: as for B1
[1]
  He_3a/2b (IIIa/IIb): 0.47 ratio
[2]
  He/Con_2b: 64.4 % of control
[3]
  He/Con_3a: 30.5 % of control

B15: GpH7-A5/GpH7-B3 variant L328_03V/GpL16-k0 (antibody, human IgG1, kappa)
heavy 1: not shown
heavy 2: not shown
light: DIVMTQSPLSLPVTPGEPASISCQASESLVHSNRNTYLHWYLQKPGQSPQLLIYKVSNRFSGVPDRFSGSGSGTDFTLKISRVEAEDVGVYYCSQNTHVPPTFGQGTKVEIERTVAAPSVFIFPPSDEQLKSGTASVVCLLNNFYPREAKVQWKVDNALQSGNSQESVTEQDSKDSTYSLSSTLTLSKADYEKHKVYACEVTHQGLSSPVTKSFNRGEC
notes: as for B1
[1]
  He_3a/2b (IIIa/IIb): 0.63 ratio
[2]
  He/Con_2b: 126 % of control
[3]
  He/Con_3a: 78.7 % of control

B16: GpH7-A5/GpH7-B3 variant L328_04F/GpL16-k0 (antibody, human IgG1, kappa)
heavy 1: not shown
heavy 2: not shown
light: DIVMTQSPLSLPVTPGEPASISCQASESLVHSNRNTYLHWYLQKPGQSPQLLIYKVSNRFSGVPDRFSGSGSGTDFTLKISRVEAEDVGVYYCSQNTHVPPTFGQGTKVEIERTVAAPSVFIFPPSDEQLKSGTASVVCLLNNFYPREAKVQWKVDNALQSGNSQESVTEQDSKDSTYSLSSTLTLSKADYEKHKVYACEVTHQGLSSPVTKSFNRGEC
notes: as for B1
[1]
  He_3a/2b (IIIa/IIb): 0.36 ratio
[2]
  He/Con_2b: 219 % of control
[3]
  He/Con_3a: 79.3 % of control

B17: GpH7-A5/GpH7-B3 variant N325_07I/GpL16-k0 (antibody, human IgG1, kappa)
heavy 1: not shown
heavy 2: not shown
light: DIVMTQSPLSLPVTPGEPASISCQASESLVHSNRNTYLHWYLQKPGQSPQLLIYKVSNRFSGVPDRFSGSGSGTDFTLKISRVEAEDVGVYYCSQNTHVPPTFGQGTKVEIERTVAAPSVFIFPPSDEQLKSGTASVVCLLNNFYPREAKVQWKVDNALQSGNSQESVTEQDSKDSTYSLSSTLTLSKADYEKHKVYACEVTHQGLSSPVTKSFNRGEC
notes: as for B1
[1]
  He_3a/2b (IIIa/IIb): 0.17 ratio
[2]
  He/Con_2b: 171 % of control
[3]
  He/Con_3a: 28.7 % of control
